From the supplement of paper PMC10567573
± gives the standard deviation.

Assay: protein stability index of a GFP-peptide fusion (GPS, HEK-293T) (PSI 1-6); higher = more stable
[1] = treatment: DMSO, c terminus: a fixed tail appended
[2] = treatment: MLN4924 1 uM, 8 h, c terminus: a fixed tail appended
[3] = treatment: DMSO, c terminus: native
[4] = treatment: MLN4924 1 uM, 8 h, c terminus: native
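Note: 24-mer peptide tiles fused after GFP, lentivirally expressed, FACS-sorted into six equal bins by GFP/DsRed ratio, decoded by Illumina sequencing, PSI is the read-weighted mean bin number.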

Sequence	protein stability index [1]	protein stability index [2]	protein stability index [3]	protein stability index [4]
GKEVKVNWATTPSSQKKDTSSSTV [TIA1]	4.76 ± 0.21	4.92 ± 0.36		
EKYGRAHPVFYQGTYSQALNDAKR [FAF2]	3.28 ± 0.15	3.47 ± 0.37		
LKRSHRESQFLMAKKNFNTNLLE [HESX1]			3.36 ± 0.24	3.62 ± 0.2
FDQLKQFLTFDKQVLRFYAIWDDT [EFHC1]	2.31 ± 0.2	2.13 ± 0.33		
QMNLLQKYSLLKLTALLEKYTPSN [DLC1]	2.48 ± 0.55	2.41 ± 0.49		
RNLQDLARIYIRRTLRNFINDEMQ [PCMTD1]	2.07 ± 0.18	2.49 ± 0.69		
RQERVSLYPFQIHSIALSTFASLI [CDS1]	3.04 ± 0.61	2.92 ± 0.49		
AKGGSRLCTPEGWFSCQGPFDMDS [DFFB]	3.01 ± 0.3	3.1 ± 0.27		
SSQKKDTSSSTVVSTQRSQDHFHV [TIA1]	4.66 ± 0.21	4.64 ± 0.25		
NVYPEMRVYNNTLTYGEVRNSKAS [GALNT9]	3.94 ± 0.22	4.14 ± 0.3		
LQGFDQLRLEGLLCDVTLMPGDTD [KLHL13]	3.61 ± 0.36	3.88 ± 0.32		
RPCRKFLLTGQCDFGSNCRFSHMS [ZMAT5]	4.2 ± 0.74	4.28 ± 0.58		
MGYMLFNERMLESYLHAKKYLKPS [CARM1]	2.35 ± 0.17	2.08 ± 0.32		
EKPYGCIDCGKAFSQKSCLVAHQR [ZNF649]	2.81 ± 0.07	2.99 ± 0.28		
SLCKALAQKLTIRLSSRYRYGQLI [TRIP13]	3.01 ± 0.47	3.16 ± 0.66		
DQNNVIENEETGEFSIDNYPTDNT [MIA2]	5.21 ± 0.74	5.5 ± 0.17		
VLGGRRLRRAWFSWPRASPASGAS [SCNN1D]	2.89 ± 0.35	2.86 ± 0.39		
ELVPKQPQKRKPQEQLLECNKLCG [SLC2A12]	3.44 ± 0.45	4.18 ± 0.18		
KPPKPPDKPLMPYMRYSRKVWDQV [SMARCE1]	2.08 ± 0.33	2.53 ± 0.36		
RLASYLDKVRALEEANADLEVKIR [KRT16]	2.39 ± 0.26	2.59 ± 0.5		
LLETNPYLLALTIIVSIVHSVFEF [CLPTM1]	3.08 ± 0.33	2.69 ± 0.13		
RRFLLCLYLVGFLDLFGVSMVVPL [MFSD9]	2.91 ± 0.57	3.4 ± 0.17		
ASQSPKKPPAKDPLADLNIKDFL [SNAP91]			4.45 ± 0.29	4.58 ± 0.34

Sequence	protein stability index [1]	protein stability index [2]	protein stability index [3]	protein stability index [4]
RKRLAREMQLSEVQIKTWFQNRRM [VENTX]	2.67 ± 0.24	2.73 ± 0.41		
GDRLNVEVDAAPPVDLNKILEDMR [KRT36]	4.24 ± 0.4	4.323 ± 0.035		
NVVTCAAGILSNLTCNNYKNKMMV [CTNNB1]	2.69 ± 0.41	2.46 ± 0.24		
ASKMESTIKPRRVEPVCSGLQAQI [CHCHD6]	3.47 ± 0.17	3.6 ± 0.24		
VPDGLGLDEAREEEGDREVVLYG [TRIB3]			4.96 ± 0.33	5.26 ± 0.28
EHLEILQKEDVKPYQVNGVNPAYP [ETS1]	4.1 ± 0.11	4.05 ± 0.28		
TTTRHKRTANPSKTIDLGAAAHYT [CLINT1]	3.94 ± 0.2	4.06 ± 0.16		
KKAEQKKKEKIIEDKTFGLKNKKG [ZC3H15]	4.8 ± 0.31	4.92 ± 0.1		
FLENLDKSRKGELLKKSDLQKDF [PRIM1]			4.7 ± 0.24	5.154 ± 0.05
LKSDLEKASALNTKIRALQGSLEN [CD207]	3.91 ± 0.26	3.73 ± 0.66		
STSSSTQGDPAFPEMNGNGAVAPM [NOL4L]	4.93 ± 0.34	5.05 ± 0.054		
KGAILTTMLATRNFSAAKSLLNKK [CAMK2B]	2.91 ± 0.18	3.04 ± 0.24		
MNGEECAEDLRMLDASGEKMNGSH [IKZF1]	5.15 ± 0.39	5.31 ± 0.18		
SAAGHLDVVRSLLRRGASVNRTTR [FEM1A]	3.5 ± 0.33	3.75 ± 0.33		
LSEIFPGGIRGRAMALTSSMNWGI [SLC2A12]	1.91 ± 0.4	2.2 ± 0.097		
MKTFVSPEAISPDLVKKIRDFHRK [TRIM15]	3.17 ± 0.13	3.07 ± 0.16		
QALQKEKETLAVNYEKEEEFLTNE [CCDC6]	5.39 ± 0.15	5.3 ± 0.24		
VILEVSLEGSHDTANCEACTLGIC [RTP4]	3.86 ± 0.13	3.78 ± 0.28		
SSHKQGHTSSEYDMLREMFSDSRS [TAF7L]	4.11 ± 0.21	4.13 ± 0.26		
GTYSQALNDAKRELRFLLVYLHGD [FAF2]	2.41 ± 0.47	2.16 ± 0.32		
KFIKPWESPDEMELDELLKEISRK [PTPRD]	2.32 ± 0.41	2.76 ± 0.38		
PSPMPTHRSYLGPGSTSPLETSGN [SLC6A17]	4.13 ± 0.29	4.47 ± 0.26		
KTHSQELMKESLQTGDLLSTFHTI [PLAGL1]	3.49 ± 0.27	3.64 ± 0.23		

Sequence	protein stability index [1]	protein stability index [2]	protein stability index [3]	protein stability index [4]
VVRLLLEHYRVQTQQTGTVRFDGY [FEM1B]	2.62 ± 0.57	2.63 ± 0.58		
SELERLIVPNSNGVITTTPTPPGQ [JUNB]	4.65 ± 0.16	4.75 ± 0.097		
VHVFGDELSLVTLFRCIQNMPETL [TNFSF13B]	2.5 ± 0.31	2.58 ± 0.58		
YGTQRTLILESQNWRYATGGWETV [FUT8]	2.1 ± 0.13	2.16 ± 0.14		
TVSSPIPYTPSPSSSRPISPGLSY [CCDC6]	3.58 ± 0.1	3.61 ± 0.45		
NGDDMFVTFAAMQAQQGRSSLVWL [MCOLN1]	3.18 ± 0.54	2.83 ± 0.48		
DRKVLLKSDSPTGDVLLDETLKHI [GOLPH3L]	4.17 ± 0.16	4.54 ± 0.3		
KASLWQFLSSEKQICGTHRQTKKM [TRIM43]	2.63 ± 0.27	2.71 ± 0.24		
SRCRKLVEYFQQSAVAMYMLYEKQ [ZBED1]	2.44 ± 0.65	2.13 ± 0.22		
WTVANMEEIKKLTTDPDLILEVLR [LARP4]	2.15 ± 0.29	2.62 ± 0.27		
GEVEEEADSCFGDDEDDSGTEES [CDC34]			5.25 ± 0.37	5.29 ± 0.15
SIEYDSEPFGKERDAAIKKLATEA [CRY1]	5.18 ± 0.14	4.87 ± 0.7		
EDSRTSKESMSEADRAQKMDGESE [EHMT1]	5.5 ± 0.33	5.64 ± 0.23		
AHRERNEFPEDPEFEAVVRQAELA [PI4K2A]	5.32 ± 0.12	5.36 ± 0.43		
SLEMDSDEDDSEELEEDDGHGAEQ [EHMT1]	5.45 ± 0.27	5.62 ± 0.38		
SPPPAPTSSTFGLQDGNLRAPHKE [CHCHD6]	5.11 ± 0.5	5.32 ± 0.14		
EAVFGKYGRIVEVLLMKDRETNKS [RBMX]	2.53 ± 0.29	2.85 ± 0.52		
ISNGDFESYTKMCDPGMTAFEPEA [CAMK2A]	4.48 ± 0.18	4.66 ± 0.25		
ACYFGHRQVVQDLLKAGAEVNVLN [OSBPL1A]	2.46 ± 0.2	2.6 ± 0.38		
ELTLSKTDLEMQIESLNEELAYMK [KRT13]	3.66 ± 0.15	3.66 ± 0.35		
SKLCTSYSHSSTRDGRRDRYSSDT [GOSR1]	4.32 ± 0.25	4.18 ± 0.16		
ESFIKAIGVGLGFELQRLEFDLSP [AASDHPPT]	2.89 ± 0.77	2.84 ± 0.64		
EDGKTCRRKDVCQAIDHGCEHICV [MATN2]	3.82 ± 0.2	4.24 ± 0.28		

Sequence	protein stability index [1]	protein stability index [2]	protein stability index [3]	protein stability index [4]
EVPTAAGALTPTPAPTTTTATREE [CLPTM1]	5.42 ± 0.27	5.44 ± 0.39		
WDIGRGKLYHQSKGPGAPQYPAGT [SPSB2]	3.72 ± 0.095	3.53 ± 0.07		
DEQAPQRQRLLADLLHNVSQNIAA [DFFB]	3.72 ± 0.16	3.58 ± 0.31		
GAAGRSQEPEVPCAAVLPGKPGDR [RSPH3]	5.31 ± 0.29	5.31 ± 0.2		
VSVPENLPVGTQLLTVTATDRDEG [PCDHGA10]	5.42 ± 0.38	5.27 ± 0.12		
TVFRAILDYYKTGIIRCPDGISIP [BTBD10]	3.01 ± 0.24	2.56 ± 0.43		
RQLTKPRPVILDPADPTGNLGGGD [OAS1]	4.65 ± 0.23	4.48 ± 0.31		
PAHRFVLAAGSAVFDAMFNGGMAT [BTBD1]	2.49 ± 0.85	2.24 ± 0.55		
ESAFKLSTGTSRWPSAKSAGWTLA [SCNN1D]	2.46 ± 0.21	3.03 ± 0.17		
PVKSYDYLLKFLLVGDSDVGKGEI [RAB40C]	2.06 ± 0.19	2 ± 0.24		
PCPEDASTPRPPEASSSPPEGSQD [TLE6]	5.52 ± 0.16	5.53 ± 0.17		
YGGSGDGLIPTGSGRHPSHSTTPS [ARFIP2]	4.26 ± 0.069	4.51 ± 0.29		
LLFINHRLVESTSLRKAIETVYAA [MLH1]	2.2 ± 0.24			
SENCPKVISCEFAHNSNWYITFQS [LARP4]	2.21 ± 0.23	2.08 ± 0.27		
DESLCPQHHEALSLFCYEDQEAVC [TRIM39]	4.7 ± 0.057	4.69 ± 0.16		
LPLPLSLAPPPLPLPAAAVVHVSF [ZBTB22]	2.34 ± 0.3	2.15 ± 0.17		
ELEPLKGNFDWEAIFDAGTLGGEL [FOXJ1]	4.2 ± 0.39	4.05 ± 0.46		
LQNMGLLLDKLAKENQDIRLLQAQ [PBXIP1]	2.82 ± 0.2	2.93 ± 0.35		
GYLLSFHTPGGQNQEILLPGGITS [TNXB]	2 ± 0.36	2 ± 0.41		
YNPHPGFPELGYSYGGGSASSQHS [DVL3]	2.95 ± 0.36	3.29 ± 0.26		
